According to patent publication US20260169005A1:

Legend:
MSLN [1] = assay: ELISA on MSLN at pH 6, column 25 nM
MSLN [2] = assay: ELISA on MSLN at pH 6, column 100 nM
MSLN [3] = assay: ELISA on MSLN at pH 7, column 6.25 nM
MSLN [4] = assay: ELISA on MSLN at pH 6, column 6.25 nM
MSLN [5] = assay: ELISA on MSLN at pH 7, column 25 nM
MSLN [6] = assay: ELISA on MSLN at pH 7, column 1.5625 nM
MSLN [7] = assay: ELISA on MSLN at pH 7, column 100 nM
MSLN [8] = assay: ELISA on MSLN at pH 6, column 1.5625 nM

ELISA reading at 25nM, pH=6 (MSLN [1]): 0.0152 | ELISA reading at 100nM, pH=6 (MSLN [2]): 0.0154 | ELISA reading at 6.25nM, pH=7 (MSLN [3]): 0.0318 | ELISA reading at 6.25nM, pH=6 (MSLN [4]): 0.0183 | ELISA reading at 25nM, pH=7 (MSLN [5]): 0.0354 | ELISA reading at 1.5625nM, pH=7 (MSLN [6]): 0.0385 | ELISA reading at 100nM, pH=7 (MSLN [7]): 0.0239 | ELISA reading at 1.5625nM, pH=6 (MSLN [8]): 0.026
Substance: NC
